Assay results reported in US20250332213A1, “EXTENDED-RELEASE INJECTABLE GEL FORMULATIONS CONTAINING ANGIOTENSIN-(1-7) OLIGOPEPTIDES OR VARIANTS THEREOF” (ProNeurogen, Inc., priority 2021, published 2025).
Where no end group is shown, it is not given here. [ ]: non-standard residue; d: D form. glycan = not defined here

How the values were obtained:
[1] = Solubility assessment in various solvents; assay type: physicochemical; conditions: for Solubility (in words): in DMSO and PBS, did not require sonication
Description: A small sample containing the (co-)polymer of interest (e.g., PLA or PLGA) and the ANG-(1-7) oligopeptide (total sample size: ˜1 mg) was placed into a microfuge tube. The solvent of interest (e.g., DMSO, NMP, BB, and/or BzOH) was added in μL aliquots until the drug compound was in solution. The samples were left overnight to fully dissolve and were sonicated the following day, as was necessary to fully solubilize the sample. Solubility was determined when/if a clear solution was obtained.
Solubility assessment was performed for the ANG-(1-7) oligopeptide of the disclosure across multiple different solvents shown in Table 6, below. […] All other solvents required sonication to fully dissolve the ANG-(1-7) oligopeptide. DMSO is a suitable starting solvent for gel formulation evaluation.
Solubility of PNA5 in various solvents was tested and for potential use with this peptide. […] All other solvents required sonication to fully dissolve PNA5. DMSO is a suitable starting solvent for gel formulation evaluation using the PNA5 peptide. Benzyl benzoate and benzyl alcohol may also be useful solvents or solvent additives.

[2] = FDA-approved food additive; cited from earlier work

## PNA5: ANG-(1-7) variant, SEQ ID NO: 10: Asp Arg Val Tyr Ile His Ser* (glycosylated serine), carboxyl terminal NH2 ([dD][dR][dV][dY][dI][dH][dS](glycan)-NH2; reading uncertain; also: printed as Asp Arg Val Tyr Ile His Ser*)
[1]; Table 9, solvent Benzyl Alcohol (BA)
  Concentration: 100000 µg/mL
[1]; Table 9, solvent Benzyl Benzoate (BB)
  Concentration: 100000 µg/mL
[1]; Table 9, solvent DMA
  Concentration: 100000 µg/mL
[1]; Table 9, solvent DMSO
  Concentration: 500000 µg/mL
[1]; Table 9, solvent Ethoxylated Castor Oil
  Concentration: 100000 µg/mL
[1]; Table 9, solvent Ethyl Laurate
  Concentration: 100000 µg/mL
[1]; Table 9, solvent Ethyl Oleate
  Concentration: 100000 µg/mL
[1]; Table 9, solvent NMP
  Concentration: 100000 µg/mL
[1]; Table 9, solvent Oleic Acid
  Concentration: 100000 µg/mL
[1]; Table 9, solvent PBS
  Concentration: 100000 µg/mL
[1]; Table 9, solvent Polyethylene Glycol 300
  Concentration: 100000 µg/mL
[1]; Table 9, solvent Triacetin
  Concentration: 100000 µg/mL
[1]; Table 9, solvent Triethyl Citrate
  Concentration: 100000 µg/mL
[1]
  Solubility (in words): high solubility
[1]; solvent Benzyl Alcohol (BA), 100 mg/mL
  Observation at 0-24 hours: Clear colorless, fluid
[1]; solvent Benzyl Benzoate (BB), 100 mg/mL
  Observation at 0-24 hours: Clear colorless, fluid
[1]; solvent DMA, 100 mg/mL
  Observation at 0-24 hours: Insoluble
[1]; solvent DMSO, 500 mg/mL
  Observation at 0-24 hours: Clear colorless, fluid
[1]; solvent Ethoxylated Castor Oil, 100 mg/mL
  Observation at 0-24 hours: Insoluble
[1]; solvent Ethyl Laurate, 100 mg/mL
  Observation at 0-24 hours: Insoluble
[1]; solvent Ethyl Oleate, 100 mg/mL
  Observation at 0-24 hours: Insoluble
[1]; solvent NMP, 100 mg/mL
  Observation at 0-24 hours: Insoluble
[1]; solvent Oleic Acid, 100 mg/mL
  Observation at 0-24 hours: Insoluble
[1]; solvent PBS, 100 mg/mL
  Observation at 0-24 hours: Clear colorless, fluid
[1]; solvent Polyethylene Glycol 300, 100 mg/mL
  Observation at 0-24 hours: Insoluble
[1]; solvent Triacetin, 100 mg/mL
  Observation at 0-24 hours: Insoluble
[1]; solvent Triethyl Citrate, 100 mg/mL
  Observation at 0-24 hours: Insoluble

## CC(=O)OC[C@H]1O[C@H](OC2(COC(C)=O)O[C@H](COC(=O)C(C)C)[C@@H](OC(=O)C(C)C)[C@@H]2OC(=O)C(C)C)[C@H](OC(=O)C(C)C)[C@@H](OC(=O)C(C)C)[C@@H]1OC(=O)C(C)C (some centres unmarked) [SAIB, sucrose acetoisobutyrate]
[2]
  safe human daily intake: up to 20 mg/kg

## CC[C@H](C)[C@H](NC(=O)[C@H](Cc1ccc(O)cc1)NC(=O)[C@@H](NC(=O)[C@H](CCCNC(=N)N)NC(=O)[C@@H](N)CC(=O)O)C(C)C)C(=O)N[C@@H](Cc1c[nH]cn1)C(=O)N1CCC[C@H]1C(=O)O [ANG-(1-7), Asp-Arg-Val-Tyr-Ile-His-Pro]
[1]
  Solubility (in words): very high solubility
[1]; solvent Benzyl Alcohol
  Concentration: 250000 µg/mL
[1]; solvent Benzyl Benzoate
  Concentration: 250000 µg/mL
[1]; solvent DMSO
  Concentration: 500000 µg/mL
[1]; solvent Ethoxylated Castor Oil
  Concentration: 250000 µg/mL
[1]; solvent Ethyl Laureate
  Concentration: 250000 µg/mL
[1]; solvent Ethyl Oleate
  Concentration: 250000 µg/mL
[1]; solvent NMP
  Concentration: 250000 µg/mL
[1]; solvent Oleic Acid
  Concentration: 250000 µg/mL
[1]; solvent PBS at pH 7.4
  Concentration: 500000 µg/mL
[1]; solvent Polyethylene Glycol 300
  Concentration: 250000 µg/mL
[1]; solvent Triacetin
  Concentration: 250000 µg/mL
[1]; solvent Triethyl Citrate
  Concentration: 250000 µg/mL
